“Also recorded” adds a separate entry of the source.
How the values were obtained:
[1] = tested on: patients with T2DM; conditions: 1 mg YN-011, 24 weeks
[2] = tested on: db/db mice; assay: Multiple subcutaneous injections in db/db mice (type 2 diabetes model); assay type: in vivo; conditions: for rate of fasting blood glucose reduction: 54 hours (day 21) after the 7th administration; for average rate of decline in random blood glucose levels: 72 hours after the 7th administration; for average rate of fasting blood glucose reduction: average over measurement time points
Procedure: The impact of multiple subcutaneous injections of YN-011 on reducing blood glucose levels was evaluated in db/db mice (Jackson Laboratories, 000642). The mice were kept under normal lighting conditions (12 hours light/12 hours dark) and at room temperature, with free access to food (normal rodent chow) and water. Db/db mice lack leptin receptors and spontaneously develop obesity, hyperglycemia, and pancreatic B-cell atrophy by 4 weeks of age.
Sixty affected db/db mice (33-45g) were divided into six groups of 10 mice each (5 males and 5 females) and administered 0 (PBS buffer control), 0.15, 0.3, 0.6, or 1.2 mg/kg of YN-011, or 0.3 mg/kg of Degludec via subcutaneous injection. Another group of wild-type mice (17-22g) with the same genetic background served as the normal control. The administration frequency was once every 3 days (Q3D), with a total of 9 doses administered over a period of 26 days. […] The duration of the hypoglycemic effect ranged from 34 to 72 hours within the dose range of 0.15-1.2 mg/kg.

[3] = tested on: INS-1 cells; assay: Insulin secretion from INS-1 cells; assay type: cell-based
Procedure: Natural GLP-1 stimulates insulin secretion from beta cells in a glucose-dependent manner. […] INS-1 cells were serum-starved and glucose-starved, then treated with different amounts of purified YN-011 in the presence of 0, 5, or 20 mM glucose as indicated.

[4] = tested on: NASH Rhesus monkeys; assay: NASH Rhesus monkeys, body weight, lipids, glucose, food consumption, tolerability; assay type: in vivo
Procedure: The in vivo pharmacological study of YN-011 was conducted in NASH Rhesus monkeys. The evaluated clinical parameters included liver lipid content assessed by MRI-PDFF %, NAFLD Activity Score (NAS), liver fibrosis stage assessed by liver histology, body weight, body mass index (BMI), blood lipid profile, fructose metabolism, other biochemical parameters, and food consumption.
The selected Rhesus monkeys were 11-23 years old, which corresponds to 30-70 years in humans. All Rhesus monkeys were males, with weights ranging from 13.63 to 22.85 kg. They had abnormal lipid metabolism for more than 2 years, MRI-PDFF % ranging from 7.8% to 11.9%, NAS scores of 3 or higher, and fibrosis scores of 0-1c within 6 months. These animals clinically met the definition of NASH.
Fifteen Rhesus monkeys were divided into 3 groups, with 5 monkeys in each group. They received subcutaneous injections of 0 (solvent control, placebo control group), 0.050, or 0.150 mg/kg of YN-011 once a week for 13 weeks (QW). The 0.150 mg/kg YN-011 group received adaptive dosing (0.1 mg/kg for the first dose, followed by 0.150 mg/kg for the remaining 12 doses).

[5] = tested on: T2DM subjects; assay: Phase IIa clinical trial, efficacy and safety in T2DM subjects; assay type: in vivo, human
Procedure: Key inclusion criteria for the phase IIa study: • Patients with T2DM (WHO 1999) who have not taken metformin for at least 1 week and have not taken any other oral antidiabetic drugs for at least 2 weeks. • HbA1c levels at screening: 7.0%≤HbA1c≤10.0%. • Age between 18 and 65 years at screening. • BMI ≥20 kg/m^2 and ≤40 kg/m^2.
Key exclusion criteria for the phase IIa study: • Type 1 diabetes. • Fasting C-peptide <0.81 ng/mL. • Laboratory parameters meeting one of the following criteria: alanine aminotransferase (ALT) levels ≥2.5 ×ULN, and/or aspartate aminotransferase (AST) levels ≥2.5 ×ULN, fasting triglycerides >5.6 mmol/L; estimated glomerular filtration rate (eGFR) calculated by the CKD-EPI (EPI-(Scr)) equation <45 mL/min/1.73 m^2, • Known susceptibility to familial (first-degree relatives) or personal history of type 2 multiple endocrine neoplasia or medullary thyroid carcinoma. • Uncontrolled hypertension. • Known history of pancreatitis, pancreatic cancer, or serum amylase >1.2 ×ULN, or high-risk factors for pancreatitis at screening. • Patients with uncontrolled hypothyroidism. • Suspicion of active infection. • Positive hepatitis B surface antigen (HBsAg), hepatitis C antibody (HCV-Ab), human immunodeficiency virus antibody (HIV-Ab), or Treponema pallidum antibody (TPAb). • Treatment with GLP-1 receptor agonists, DPP-4 inhibitors, or insulin in the 3 months prior to randomization. • History of grade 3-4 allergy to any protein drug as per CTCAE. • Blood donation or blood loss exceeding 450 mL in the 3 months prior to screening. • Any significant endocrine, immune, coagulation, urinary reproductive tract abnormality, or hematological disease. • Clinically significant gastric emptying disorder (e.g., gastric outlet obstruction), severe chronic gastrointestinal disease (e.g., active ulcer within 6 months), long-term use of drugs directly affecting gastrointestinal motility, or previous gastrointestinal surgery. • Any other condition that the investigator or primary physician deems unsuitable for participation in the study. […]

[6] = db/db mice, after the last administration (9th dose, day 26)

B1: YN-011: GLP-1 fusion protein of SEQ ID NO: 7: GLP-1 (A8G, G22E, R36G), linker peptide and IgG2/Fc domain (C222S, A330S, P331S) (protein)
chain: HGEGTFTSDVSSYLEEQAAKEFIAWLVKGGGSSGAPPPSGGGGSERKSCVECPPCPAPPVAGPSVFLFPPKPKDTLMISRTPEVTCVVVDVSHEDPEVQFNWYVDGVEVHNAKTKPREEQFNSTFRVVSVLTVVHQDWLNGKEYKCKVSNKGLPSSIEKTISKTKGQPREPQVYTLPPSREEMTKNQVSLTCLVKGFYPSDIAVEWESNGQPENNYKTTPPMLDSDGSFFLYSKLTVDKSRWQQGNVFSCSVMHEALHNHYTQKSLSLSPG
reduction in HbA1c levels [1]: 1.73% | rate of fasting blood glucose reduction ([2]; db/db mice, 0.15 mg/kg Q3D sc): 46.8% | average rate of decline in random blood glucose levels ([2]; db/db mice, 0.15 mg/kg Q3D sc): 31.8% | average rate of fasting blood glucose reduction ([2]; db/db mice, 0.15 mg/kg Q3D sc): 55.0% | rate of fasting blood glucose reduction ([2]; db/db mice, 0.3 mg/kg Q3D sc): 55.6% | average rate of decline in random blood glucose levels ([2]; db/db mice, 0.3 mg/kg Q3D sc): 46.2% | average rate of fasting blood glucose reduction ([2]; db/db mice, 0.3 mg/kg Q3D sc): 61.8% | serum free fatty acid levels ([2]; db/db mice, 0.6 mg/kg): significantly reduced | rate of fasting blood glucose reduction ([2]; db/db mice, 0.6 mg/kg Q3D sc): 59.5% | average rate of decline in random blood glucose levels ([2]; db/db mice, 0.6 mg/kg Q3D sc): 50.8% | average rate of fasting blood glucose reduction ([2]; db/db mice, 0.6 mg/kg Q3D sc): 63.7% | perirenal fat content ([2]; db/db mice, 1.2 mg/kg): significantly reduced | rate of fasting blood glucose reduction ([2]; db/db mice, 1.2 mg/kg Q3D sc): 64.7% | average rate of decline in random blood glucose levels ([2]; db/db mice, 1.2 mg/kg Q3D sc): 54.3% | average rate of fasting blood glucose reduction ([2]; db/db mice, 1.2 mg/kg Q3D sc): 66.1% | serum fructosamine levels ([2]; db/db mice, 1.2 mg/kg sc): significant reduction | time the hypoglycemic effect (fasting blood glucose) can be maintained ([2]; db/db mice, 0.15, 0.3, 0.6 and 1.2 mg/kg every 3 days): at least 54 hours | scapular fat content ([2]; db/db mice, 0.15, 0.3 and 0.6 mg/kg): significantly reduced | serum fructosamine levels ([2]; db/db mice, 0.15-0.6 mg/kg sc): decreasing trend | subcutaneous fat content, inguinal fat content and their ratios to body weight ([2]; db/db mice, 0.3, 0.6 and 1.2 mg/kg): significantly reduced | random and fasting body weights ([2]; db/db mice, 0.3, 0.6 and 1.2 mg/kg (P<0.05, P<0.01, P<0.001)): significant decreases | insulin secretion (serum insulin levels) ([2]; db/db mice, 3 hours after administration): significantly promoted insulin secretion | fasting blood glucose levels versus model control group ([2]; db/db mice, Q3D sc, YN-011 all dose groups (P<0.001), Degludec 0.3 mg/kg): significant decrease; also recorded: significantly reduced fasting blood glucose levels | epididymal fat content and its ratio to body weight ([2]; db/db mice, YN-011 treatment groups vs solvent control): significant decrease | time the hypoglycemic effect was sustained ([2]; db/db mice, after repeated administration): 72 h | fasting serum insulin levels [2, 6]: dose-dependently increased | pancreatic-cell mass [2, 6]: significant increase | time after administration at which therapeutic effect was observed ([2]; db/db mice, first administration, dose as low as 0.15 mg/kg): 3 h | random plasma glucose (RPG) concentration ([2]; db/db mice, following the first subcutaneous administration, 0.15-1.2 mg/kg): significantly reduced | serum triglyceride levels ([2]; db/db mice, multiple sc injections vs solvent control): significantly decreased | RPG levels versus control group ([2]; db/db mice, repeated administration, all dose groups and time points except 0.15 mg/kg after the 4th administration (P=0.07)): significantly lower | insulin secretion from beta cells ([3]; absence of glucose): did not stimulate insulin secretion | insulin secretion from beta cells ([3]; presence of 5 mM or 20 mM glucose): dose-dependently stimulated insulin secretion | food consumption [4]: dose-dependent reduction | high-density lipoprotein cholesterol (HDL-c) compared to baseline [4]: decreasing trend | plasma fasting plasma glucose (FPG) levels, YN-011 vs placebo [4]: no significant differences | reduction of plasma fructosamine (FRA) ([4]; 150 μg/kg, after 12 weeks of treatment): 4.3% | adverse reactions ([4]; 0.050 or 0.150 mg/kg sc QW, 13 weeks): No significant adverse reactions | body weight and BMI compared to baseline ([4]; Day 7-Day 84): significant decrease | serum LDL-c, total cholesterol (TC) and total triglycerides (TG) ([4]; various time points during treatment): significantly reduced | side effects or safety risks ([5]; 1-4 mg sc): No significant side effects or safety risks | HbA1c levels compared to placebo ([5]; multiple sc administrations, 1 mg, 3 mg or 4 mg, p<0.05): persistent improvement; also recorded: significant difference compared to the placebo | fasting blood glucose compared to placebo ([5]; multiple sc administrations, 3 mg or 4 mg, p<0.05): statistically significant improvement; also recorded: significant difference compared to the placebo

— patent publication US20250376498A1, “FUSION PROTEINS COMPRISING AN IMPROVED GLP-1 RECEPTOR AGONIST AND USES THEREOF” (Guangzhou Innogen Pharmaceutical Group Co., Ltd., priority 2022, published 2025)
